This note sets out measurements from patent US20170114104A1.

In this experiment the target is Biotin-AP (biotinylated AP-peptide with a fluorescent dye). The experiment is described as follows: native-PAGE off-rate under excess biotin, 37 °C.

B1: Monodin (MA) (designed binder)
chain: FDASNFKDFSSIASASSSWQNQHGSTMIIQVDSFGNVSGQYVNRAEGTGCQNSPYPLTGRVNGTFIDFSVKWNNSTENCNSNTQWTGYAQVNGNNTEIVTRWNLKYEGGSGPAIWQGQDTFQYVPTTE
For B1, the koff (usually the first-order rate constant of dissociation) turned out to be 5.1e-05 s⁻¹.

B2: Rhizavidin (RA) (protein)
chain: FDASNFKDFSSIASASSSWQNQSGSTMIIQVDSFGNVSGQYVNRAQGTGCQNSPYPLTGRVNGTFIAFSVGWNNSTENCNSATGWTGYAQVNGNNTEIVTSWNLAYEGGSGPAIEQGQDTFQYVPTTE
In turn, B2 gave an off-rate constant (koff) of 4.9e-05 s⁻¹. This koff and that of the molecule before are within 1.5-fold of each other.
